Drawing on the Immune Epitope Database (IEDB), this text covers Kd for 24 sequences.

Targets include HLA-A*11:01; HLA-A*03:01; HLA-A*31:01; HLA-A*33:01; HLA-A*68:01; HLA-A*02:06.
What all share (experiment): IEDB peptide-MHC binding, purified MHC/competitive/radioactivity; filed as Kd, often an IC50 or EC50 that approximates it; ≥ and ≤ were set here for values at or beyond the usual limits of such assays
In the next assay the target is HLA-A*02:03. The following applies: source organism: Dengue virus 4 Philippines/H241/1956.
Setting [1] is: source organism: Vaccinia virus WR.
Where [2] appears, read: source organism: Triticum aestivum.
Setting [3] is: source organism: Mammarenavirus guanaritoense.
Setting [4] is: source organism: Vaccinia virus Copenhagen.
The mark [5] stands for this setting: source organism: SARS coronavirus Tor2.
Where [6] appears, read: source organism: Lymphocytic choriomeningitis virus (strain Armstrong).
The mark [7] stands for this setting: source organism: Mammarenavirus whitewaterense.
Where [8] appears, read: source organism: Mammarenavirus machupoense.

Consider GAVVKSDNK, for which the dissociation constant Kd with HLA-A*11:01 (setting [1]) was 0.782 µM; with HLA-A*03:01 (setting [1]), 15.4 µM; with HLA-A*31:01 (setting [1]), at least 77.9 µM; with HLA-A*33:01 (setting [1]) it was at least 77.7 µM; in the assay with HLA-A*68:01 (setting [1]), 12.5 µM.

Consider LFMEMFFDY, for which the Kd in the assay with HLA-A*11:01 (setting [1]) was at least 59.5 µM; with HLA-A*03:01 (setting [1]), at least 37.6 µM; with HLA-A*31:01 (setting [1]) it was 13 µM; with HLA-A*33:01 (setting [1]) it was at least 56.1 µM; in the assay with HLA-A*68:01 (setting [1]), at least 70.2 µM.

For the sequence AMSFDGFIR, the Kd is 0.327 µM with HLA-A*11:01 (setting [1]); 9.6 µM in the assay with HLA-A*03:01 (setting [1]); 0.0718 µM in the assay with HLA-A*31:01 (setting [1]); 3.15 µM with HLA-A*33:01 (setting [1]); 0.898 µM in the assay with HLA-A*68:01 (setting [1]).

Take LLAMGCYSQV: in the assay with HLA-A*02:03, the Kd came to 0.00267 µM.

Regarding SMASLKSLY, the Kd was found to be 0.0384 µM with HLA-A*11:01 (setting [1]); 0.00121 µM with HLA-A*03:01 (setting [1]); 0.692 µM with HLA-A*31:01 (setting [1]); 16.1 µM in the assay with HLA-A*33:01 (setting [1]); 0.0265 µM with HLA-A*68:01 (setting [1]).

Take SSVQLSNNK: the Kd in the assay with HLA-A*11:01 (setting [1]) is 0.00521 µM; in the assay with HLA-A*03:01 (setting [1]), 2.2 µM; with HLA-A*31:01 (setting [1]), 4.58 µM; in the assay with HLA-A*33:01 (setting [1]), at least 77.7 µM; with HLA-A*68:01 (setting [1]), 0.0199 µM.

Consider QQQQQQQQQK, for which the equilibrium dissociation constant (Kd) with HLA-A*11:01 (setting [2]) was 4.84 µM; with HLA-A*03:01 (setting [2]), 11.2 µM; in the assay with HLA-A*31:01 (setting [2]) it was at least 23.2 µM; with HLA-A*33:01 (setting [2]) it was at least 70 µM; in the assay with HLA-A*68:01 (setting [2]), at least 46.7 µM.

With LFYPSMFTLR, the equilibrium dissociation constant (Kd) with HLA-A*11:01 (setting [1]) came out at 7.33 µM; with HLA-A*03:01 (setting [1]), 1.59 µM; with HLA-A*31:01 (setting [1]), 0.00133 µM; with HLA-A*33:01 (setting [1]) it was 0.0289 µM; in the assay with HLA-A*68:01 (setting [1]), 0.00266 µM.

On to TVLPHLCLDY, for which the Kd was determined as 0.00299 µM in the assay with HLA-A*11:01 (setting [1]); 0.00408 µM with HLA-A*03:01 (setting [1]); 0.598 µM in the assay with HLA-A*31:01 (setting [1]); 6.05 µM with HLA-A*33:01 (setting [1]); 0.701 µM with HLA-A*68:01 (setting [1]).

For the sequence YLGVNNLPY, the Kd with HLA-A*11:01 (setting [1]) was 1.49 µM; with HLA-A*03:01 (setting [1]), 1.3 µM; in the assay with HLA-A*31:01 (setting [1]), at least 77.9 µM; with HLA-A*33:01 (setting [1]), at least 77.7 µM; with HLA-A*68:01 (setting [1]), at least 52.7 µM.

Turning to TLVVISVIFY, the Kd with HLA-A*11:01 (setting [1]) was 1.37 µM; in the assay with HLA-A*03:01 (setting [1]), 3.49 µM; with HLA-A*31:01 (setting [1]), 12.5 µM; in the assay with HLA-A*33:01 (setting [1]), at least 70 µM; with HLA-A*68:01 (setting [1]) it was 8.66 µM.

Consider GQVMLLILCV, for which the Kd in the assay with HLA-A*02:06 (source organism: Dengue virus 2 Jamaica/1409/1983) is 0.0772 µM.

On to ITLDILTEI, for which the Kd with HLA-A*02:06 (source organism: Dengue virus 4 Philippines/H241/1956) was determined as 0.00888 µM.

In the case of SYSKMSVVMR, the Kd with HLA-A*11:01 (setting [3]) was at least 21.7 µM; with HLA-A*03:01 (setting [3]) it was 9.97 µM; with HLA-A*31:01 (setting [3]) it was 0.00569 µM; with HLA-A*33:01 (setting [3]) it was 0.0559 µM; with HLA-A*68:01 (setting [3]), 0.132 µM.

For QLEDSEYLFR, the Kd is 0.0791 µM with HLA-A*11:01 (setting [1]); 0.376 µM with HLA-A*03:01 (setting [1]); 0.182 µM in the assay with HLA-A*31:01 (setting [1]); 0.04 µM with HLA-A*33:01 (setting [1]); 0.0909 µM with HLA-A*68:01 (setting [1]).

For NTFVNFNSVK, the Kd with HLA-A*11:01 (setting [4]) worked out at 0.0659 µM; in the assay with HLA-A*03:01 (setting [4]), 0.0746 µM; in the assay with HLA-A*31:01 (setting [4]), 1.67 µM; with HLA-A*33:01 (setting [4]), 0.856 µM; in the assay with HLA-A*68:01 (setting [4]), 0.0398 µM.

As for GLKIEEIEK, the dissociation constant Kd in the assay with HLA-A*11:01 (setting [1]) was 6.51 µM; with HLA-A*03:01 (setting [1]) it was 5.63 µM; with HLA-A*31:01 (setting [1]) it was 13.2 µM; with HLA-A*33:01 (setting [1]), 16.3 µM; with HLA-A*68:01 (setting [1]) it was 16.8 µM.

Take AVIIRGHLR: the Kd with HLA-A*11:01 (setting [5]) is 2.24 µM; with HLA-A*03:01 (setting [5]) it was at least 33.4 µM; in the assay with HLA-A*31:01 (setting [5]), 0.136 µM; with HLA-A*33:01 (setting [5]) it was at least 28.2 µM; with HLA-A*68:01 (setting [5]), 2.64 µM.

With TRFWYINHTK, the Kd is 1.41 µM with HLA-A*11:01 (setting [3]); 1.91 µM with HLA-A*03:01 (setting [3]); 0.0895 µM in the assay with HLA-A*31:01 (setting [3]); at least 70 µM in the assay with HLA-A*33:01 (setting [3]); 0.0932 µM with HLA-A*68:01 (setting [3]).

In the case of TLGNFSWFPH, the dissociation constant (Kd) came out at 1.38 µM with HLA-A*11:01 (setting [6]); 2.15 µM in the assay with HLA-A*03:01 (setting [6]); 0.57 µM with HLA-A*31:01 (setting [6]); 12.6 µM in the assay with HLA-A*33:01 (setting [6]); 8.98 µM with HLA-A*68:01 (setting [6]).

For VCFWSTLFY, the dissociation constant (Kd) in the assay with HLA-A*11:01 (setting [7]) is 0.93 µM; with HLA-A*03:01 (setting [7]), 0.138 µM; in the assay with HLA-A*31:01 (setting [7]), at least 77.9 µM; with HLA-A*33:01 (setting [7]) it was at least 77.7 µM; in the assay with HLA-A*68:01 (setting [7]), at least 39.2 µM.

In the case of TMLRNSELCH, the Kd with HLA-A*11:01 (setting [8]) is at least 69.7 µM; in the assay with HLA-A*03:01 (setting [8]) it was 10.2 µM; with HLA-A*31:01 (setting [8]) it was 8.82 µM; with HLA-A*33:01 (setting [8]), at least 70 µM; in the assay with HLA-A*68:01 (setting [8]), at least 70.1 µM.

As to NISFKSINK, the Kd is 0.0413 µM with HLA-A*11:01 (setting [1]); 0.0149 µM with HLA-A*03:01 (setting [1]); 9.77 µM with HLA-A*31:01 (setting [1]); 3.18 µM with HLA-A*33:01 (setting [1]); 0.119 µM with HLA-A*68:01 (setting [1]).

In the case of KIVGLYGNGV, the Kd with HLA-A*02:06 (source organism: Dengue virus 1 Brazil/97-11/1997) came out at 0.0147 µM.
